One assay deals with T1, G9a and GLP (Homo sapiens, UniProt Q96KQ7+Q9H9B1).
T1 sequence (Q96KQ7 2-1210 limits assumed): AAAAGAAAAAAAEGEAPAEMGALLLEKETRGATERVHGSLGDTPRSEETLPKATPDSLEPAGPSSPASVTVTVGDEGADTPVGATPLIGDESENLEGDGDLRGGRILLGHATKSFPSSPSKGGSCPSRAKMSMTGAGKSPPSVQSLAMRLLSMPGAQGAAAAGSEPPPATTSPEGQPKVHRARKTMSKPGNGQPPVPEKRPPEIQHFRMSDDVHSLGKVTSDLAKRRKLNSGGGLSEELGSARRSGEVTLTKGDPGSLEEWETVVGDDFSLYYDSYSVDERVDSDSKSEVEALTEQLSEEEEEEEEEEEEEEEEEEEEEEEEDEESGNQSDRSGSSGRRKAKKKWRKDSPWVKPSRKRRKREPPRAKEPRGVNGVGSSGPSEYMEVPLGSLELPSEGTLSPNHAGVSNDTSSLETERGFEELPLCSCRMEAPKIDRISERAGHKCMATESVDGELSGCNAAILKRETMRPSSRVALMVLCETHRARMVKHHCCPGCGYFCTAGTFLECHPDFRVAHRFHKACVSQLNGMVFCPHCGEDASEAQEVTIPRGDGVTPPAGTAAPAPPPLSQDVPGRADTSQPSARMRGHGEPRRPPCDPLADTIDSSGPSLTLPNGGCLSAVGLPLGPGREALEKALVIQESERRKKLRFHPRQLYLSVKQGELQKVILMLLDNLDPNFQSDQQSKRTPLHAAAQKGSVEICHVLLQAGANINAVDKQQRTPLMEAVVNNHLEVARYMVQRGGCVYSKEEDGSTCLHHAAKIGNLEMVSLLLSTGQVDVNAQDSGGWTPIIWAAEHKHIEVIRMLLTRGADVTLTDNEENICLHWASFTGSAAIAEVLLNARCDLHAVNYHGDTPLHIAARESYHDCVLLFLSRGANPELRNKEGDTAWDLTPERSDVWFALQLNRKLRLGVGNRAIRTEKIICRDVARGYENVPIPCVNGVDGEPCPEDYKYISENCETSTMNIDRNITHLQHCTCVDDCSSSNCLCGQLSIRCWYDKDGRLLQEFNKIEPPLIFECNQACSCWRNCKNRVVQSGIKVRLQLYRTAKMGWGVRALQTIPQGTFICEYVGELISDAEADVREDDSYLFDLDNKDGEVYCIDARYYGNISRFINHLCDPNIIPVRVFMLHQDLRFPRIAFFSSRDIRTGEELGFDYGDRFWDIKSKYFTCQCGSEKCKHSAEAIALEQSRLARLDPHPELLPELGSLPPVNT
T1 sequence (Q9H9B1 2-1298 limits assumed): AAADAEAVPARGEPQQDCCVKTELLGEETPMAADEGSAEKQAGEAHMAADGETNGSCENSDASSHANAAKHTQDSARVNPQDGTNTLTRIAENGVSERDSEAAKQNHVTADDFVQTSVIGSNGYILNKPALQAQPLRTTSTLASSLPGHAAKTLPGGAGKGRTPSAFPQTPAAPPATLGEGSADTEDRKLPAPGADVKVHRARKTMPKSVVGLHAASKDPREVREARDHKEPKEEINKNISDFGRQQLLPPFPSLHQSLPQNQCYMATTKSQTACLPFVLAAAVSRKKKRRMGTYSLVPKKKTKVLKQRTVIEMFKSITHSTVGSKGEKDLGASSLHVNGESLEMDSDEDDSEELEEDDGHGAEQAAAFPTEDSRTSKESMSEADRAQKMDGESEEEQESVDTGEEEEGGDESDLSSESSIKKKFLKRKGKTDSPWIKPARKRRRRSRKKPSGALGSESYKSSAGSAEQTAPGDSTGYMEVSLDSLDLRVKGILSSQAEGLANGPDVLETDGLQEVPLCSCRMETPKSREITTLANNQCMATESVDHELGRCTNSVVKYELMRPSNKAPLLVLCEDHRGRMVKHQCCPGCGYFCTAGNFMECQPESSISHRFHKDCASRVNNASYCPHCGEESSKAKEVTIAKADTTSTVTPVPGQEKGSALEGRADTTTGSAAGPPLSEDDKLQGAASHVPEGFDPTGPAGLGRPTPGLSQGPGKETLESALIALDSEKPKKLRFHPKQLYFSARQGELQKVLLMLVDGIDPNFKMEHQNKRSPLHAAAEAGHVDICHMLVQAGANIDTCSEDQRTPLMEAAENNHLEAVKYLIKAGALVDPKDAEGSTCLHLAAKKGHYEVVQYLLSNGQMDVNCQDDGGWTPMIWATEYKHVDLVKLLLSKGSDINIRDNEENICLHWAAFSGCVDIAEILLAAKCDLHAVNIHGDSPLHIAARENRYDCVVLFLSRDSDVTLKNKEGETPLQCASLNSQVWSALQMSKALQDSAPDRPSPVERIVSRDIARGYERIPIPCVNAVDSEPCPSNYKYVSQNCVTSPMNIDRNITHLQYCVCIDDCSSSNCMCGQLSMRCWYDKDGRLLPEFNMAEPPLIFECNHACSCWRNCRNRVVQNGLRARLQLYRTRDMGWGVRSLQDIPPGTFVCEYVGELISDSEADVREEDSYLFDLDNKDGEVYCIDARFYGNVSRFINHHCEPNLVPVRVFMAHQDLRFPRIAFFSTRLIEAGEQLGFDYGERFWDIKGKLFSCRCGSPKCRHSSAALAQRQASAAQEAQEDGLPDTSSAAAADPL
Description: Triple SILAC pull-down after UNC0638 treatment of 293T cells, DMSO/UNC0638 ratio of protein captured by 3×MBT.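 On all read-outs here: mass spectrometry (Q-Exactive) SILAC quantitation, DMSO/UNC0638 ratio computed after subtracting 3×MBTD355N mutant pull-down background, only proteins with at least twofold 3×MBT over mutant signal considered.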 It counts as cell-based. Also noted: cells were treated for 24 hours with UNC0638 at 2.5 μM or DMSO vehicle control; endogenous in cells; host or cells: HEK 293T. The settings on record: for Relative to UNC0638 UNC Heavy / Relative to UNC0638 UNC Light: SILAC ratio DMSO/UNC0638 of protein pulled down with 3xMBT; for Relative to UNC0638 UNC Heavy: UNC0638 in heavy SILAC media; for Relative to UNC0638 UNC Light: UNC0638 in light SILAC media; for Relative to UNC0638 Average: average of UNC Light and UNC Heavy experiments.

Another assay has as its system 3×MBT domain of L3MBTL1. Description: Triple SILAC pull-down, 3xMBT/3xMBTD355N ratio (cytoplasmic, nuclear and chromatin fractions of 293T cells).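 On all read-outs here: proteins quantified with MaxQuant, requiring at least two unique peptides and quantification in both label directions, normalized to the mean of proteins from a digested loading control.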 The settings on record: SILAC ratio, pull-down 3xMBT vs 3xMBTD355N; for 3xMBT/D355N UNC Heavy: experiment with UNC0638 in heavy SILAC media; for 3xMBT/D355N UNC Light: experiment with UNC0638 in light SILAC media. Type of assay: binding, human.

B1: ILF3 (protein, UniProt Q12906 1-894, looked up)
Interleukin enhancer-binding …: MRPMRIFVNDDRHVMAKHSSVYPTQEELEAVQNMVSHTERALKAVSDWIDEQEKGSSEQAESDNMDVPPEDDSKEGAGEQKTEHMTRTLRGVMRVGLVAKGLLLKGDLDLELVLLCKEKPTTALLDKVADNLAIQLAAVTEDKYEILQSVDDAAIVIKNTKEPPLSLTIHLTSPVVREEMEKVLAGETLSVNDPPDVLDRQKCLAALASLRHAKWFQARANGLKSCVIVIRVLRDLCTRVPTWGPLRGWPLELLCEKSIGTANRPMGAGEALRRVLECLASGIVMPDGSGIYDPCEKEATDAIGHLDRQQREDITQSAQHALRLAAFGQLHKVLGMDPLPSKMPKKPKNENPVDYTVQIPPSTTYAITPMKRPMEEDGEEKSPSKKKKKIQKKEEKAEPPQAMNALMRLNQLKPGLQYKLVSQTGPVHAPIFTMSVEVDGNSFEASGPSKKTAKLHVAVKVLQDMGLPTGAEGRDSSKGEDSAEETEAKPAVVAPAPVVEAVSTPSAAFPSDATAEQGPILTKHGKNPVMELNEKRRGLKYELISETGGSHDKRFVMEVEVDGQKFQGAGSNKKVAKAYAALAALEKLFPDTPLALDANKKKRAPVPVRGGPKFAAKPHNPGFGMGGPMHNEVPPPPNLRGRGRGGSIRGRGRGRGFGGANHGGYMNAGAGYGSYGYGGNSATAGYSQFYSNGGHSGNASGGGGGGGGGSSGYGSYYQGDNYNSPVPPKHAGKKQPHGGQQKPSYGSGYQSHQGQQQSYNQSPYSNYGPPQGKQKGYNHGQGSYSYSNSYNSPGGGGGSDYNYESKFNYSGSGGRSGGNSYGSGGASYNPGSHGGYGGGSGGGSSYQGKQGGYSQSNYNSPGSGQNYSGPPSSYQSSQGGYGRNADHSMNYQYR
Regarding B1, in the assay with G9a and GLP, the “Relative to UNC0638 UNC Heavy” value stood at 0.11 log base 2, the “Relative to UNC0638 UNC Light” value came out at 0.23 log base 2 and the “Relative to UNC0638 Average” value was 0.17 log base 2. Besides, in the assay with 3×MBT domain of L3MBTL1, the “3xMBT/D355N UNC Heavy” value stood at 3.53 log base 2 and the “3xMBT/D355N UNC Light” value is reported as 4.28 log base 2.

B2: CTTN (protein, UniProt Q14247 1-550, looked up)
Src substrate cortactin: MWKASAGHAVSIAQDDAGADDWETDPDFVNDVSEKEQRWGAKTVQGSGHQEHINIHKLRENVFQEHQTLKEKELETGPKASHGYGGKFGVEQDRMDKSAVGHEYQSKLSKHCSQVDSVRGFGGKFGVQMDRVDQSAVGFEYQGKTEKHASQKDYSSGFGGKYGVQADRVDKSAVGFDYQGKTEKHESQRDYSKGFGGKYGIDKDKVDKSAVGFEYQGKTEKHESQKDYVKGFGGKFGVQTDRQDKCALGWDHQEKLQLHESQKDYKTGFGGKFGVQSERQDSAAVGFDYKEKLAKHESQQDYSKGFGGKYGVQKDRMDKNASTFEDVTQVSSAYQKTVPVEAVTSKTSNIRANFENLAKEKEQEDRRKAEAERAQRMAKERQEQEEARRKLEEQARAKTQTPPVSPAPQPTEERLPSSPVYEDAASFKAELSYRGPVSGTEPEPVYSMEAADYREASSQQGLAYATEAVYESAEAPGHYPAEDSTYDEYENDLGITAVALYDYQAAGDDEISFDPDDIITNIEMIDDGWWRGVCKGRYGLFPANYVELRQ
As for B2, in the assay with G9a and GLP, the “Relative to UNC0638 UNC Heavy” value amounted to 0.26 log base 2, the “Relative to UNC0638 UNC Light” value came out at 0.08 log base 2 and the “Relative to UNC0638 Average” value came out at 0.17 log base 2. In the assay with 3×MBT domain of L3MBTL1, the “3xMBT/D355N UNC Heavy” value was determined as 1.52 log base 2 and the “3xMBT/D355N UNC Light” value is reported as 2.75 log base 2.

B3: HNRNPA1 (protein, UniProt P09651 1-372, looked up)
Heterogeneous nuclear …: MSKSESPKEPEQLRKLFIGGLSFETTDESLRSHFEQWGTLTDCVVMRDPNTKRSRGFGFVTYATVEEVDAAMNARPHKVDGRVVEPKRAVSREDSQRPGAHLTVKKIFVGGIKEDTEEHHLRDYFEQYGKIEVIEIMTDRGSGKKRGFAFVTFDDHDSVDKIVIQKYHTVNGHNCEVRKALSKQEMASASSSQRGRSGSGNFGGGRGGGFGGNDNFGRGGNFSGRGGFGGSRGGGGYGGSGDGYNGFGNDGGYGGGGPGYSGGSRGYGSGGQGYGNQGSGYGGSGSYDSYNNGGGGGFGGGSGSNFGGGGSYNDFGNYNNQSSNFGPMKGGNFGGRSSGPYGGGGQYFAKPRNQGGYGGSSSSSSYGSGRRF
On to B3, for which, in the assay with G9a and GLP, the “Relative to UNC0638 UNC Heavy” value turned out to be 0.09 log base 2, the “Relative to UNC0638 UNC Light” value is 0.25 log base 2 and the “Relative to UNC0638 Average” value is recorded as 0.17 log base 2. Moreover, in the assay with 3×MBT domain of L3MBTL1, the “3xMBT/D355N UNC Heavy” value is listed as 3.75 log base 2 and the “3xMBT/D355N UNC Light” value is listed as 4.25 log base 2.

B4: PCBP2 (protein, UniProt Q15366 1-365, looked up)
Poly(rC)-binding protein 2: MDTGVIEGGLNVTLTIRLLMHGKEVGSIIGKKGESVKKMREESGARINISEGNCPERIITLAGPTNAIFKAFAMIIDKLEEDISSSMTNSTAASRPPVTLRLVVPASQCGSLIGKGGCKIKEIRESTGAQVQVAGDMLPNSTERAITIAGIPQSIIECVKQICVVMLETLSQSPPKGVTIPYRPKPSSSPVIFAGGQDRYSTGSDSASFPHTTPSMCLNPDLEGPPLEAYTIQGQYAIPQPDLTKLHQLAMQQSHFPMTHGNTGFSGIESSSPEVKGYWGLDASAQTTSHELTIPNDLIGCIIGRQGAKINEIRQMSGAQIKIANPVEGSTDRQVTITGSAASISLAQYLINVRLSSETGGMGSS
For the molecule B4, in the assay with G9a and GLP, the “Relative to UNC0638 UNC Heavy” value amounted to 0.13 log base 2, the “Relative to UNC0638 UNC Light” value turned out to be 0.21 log base 2 and the “Relative to UNC0638 Average” value stood at 0.17 log base 2. In the assay with 3×MBT domain of L3MBTL1, the “3xMBT/D355N UNC Heavy” value is recorded as 1.88 log base 2 and the “3xMBT/D355N UNC Light” value stood at 2.41 log base 2.

B5: RBMX (protein, UniProt P38159 1-391, looked up)
RNA-binding motif protein, X …: MVEADRPGKLFIGGLNTETNEKALEAVFGKYGRIVEVLLMKDRETNKSRGFAFVTFESPADAKDAARDMNGKSLDGKAIKVEQATKPSFESGRRGPPPPPRSRGPPRGLRGGRGGSGGTRGPPSRGGHMDDGGYSMNFNMSSSRGPLPVKRGPPPRSGGPPPKRSAPSGPVRSSSGMGGRAPVSRGRDSYGGPPRREPLPSRRDVYLSPRDDGYSTKDSYSSRDYPSSRDTRDYAPPPRDYTYRDYGHSSSRDDYPSRGYSDRDGYGRDRDYSDHPSGGSYRDSYESYGNSRSAPPTRGPPPSYGGSSRYDDYSSSRDGYGGSRDSYSSSRSDLYSSGRDRVGRQERGLPPSMERGYPPPRDSYSSSSRGAPRGGGRGGSRSDRGGGRSRY
B5: in the assay with G9a and GLP, the “Relative to UNC0638 UNC Heavy” value was found to be 0.11 log base 2, the “Relative to UNC0638 UNC Light” value is reported as 0.24 log base 2 and the “Relative to UNC0638 Average” value was found to be 0.17 log base 2. Moreover, in the assay on 3×MBT domain of L3MBTL1, the “3xMBT/D355N UNC Heavy” value was 3.98 log base 2 and the “3xMBT/D355N UNC Light” value was 4.49 log base 2.
